Assay results taken from patent US20100255578A1.

Experiments:
[1] = target: H296-H296 (modified fibronectin fragment in which two H-296's are connected); experiment: ELISA as in Example 34; H296-H296 coated at 25 ug/mL in PBS; HRP-labeled FNH3-8
[2] = target: H296-H296-HT; experiment: ELISA; H296-H296-HT coated at 5 ug/mL; HRP-labeled FNH3-8, ABTS; blank subtracted
[3] = target: H-296, a polypeptide comprising a heparin binding domain and a CS-1 domain of fibronectin (Homo sapiens (Human)) (UniProt P02751); experiment: ELISA; H-296 coated at 50 ug/mL in 0.2 M phosphate buffer pH 6.2; HRP-labeled FNH3-8, ABTS
[4] = target: H271-H296; experiment: ELISA; H271-H296 coated at 16 ug/mL; HRP-labeled FNH3-8, ABTS; blank subtracted
Sequence of H271-H296 (chain, as listed by the source limits assumed): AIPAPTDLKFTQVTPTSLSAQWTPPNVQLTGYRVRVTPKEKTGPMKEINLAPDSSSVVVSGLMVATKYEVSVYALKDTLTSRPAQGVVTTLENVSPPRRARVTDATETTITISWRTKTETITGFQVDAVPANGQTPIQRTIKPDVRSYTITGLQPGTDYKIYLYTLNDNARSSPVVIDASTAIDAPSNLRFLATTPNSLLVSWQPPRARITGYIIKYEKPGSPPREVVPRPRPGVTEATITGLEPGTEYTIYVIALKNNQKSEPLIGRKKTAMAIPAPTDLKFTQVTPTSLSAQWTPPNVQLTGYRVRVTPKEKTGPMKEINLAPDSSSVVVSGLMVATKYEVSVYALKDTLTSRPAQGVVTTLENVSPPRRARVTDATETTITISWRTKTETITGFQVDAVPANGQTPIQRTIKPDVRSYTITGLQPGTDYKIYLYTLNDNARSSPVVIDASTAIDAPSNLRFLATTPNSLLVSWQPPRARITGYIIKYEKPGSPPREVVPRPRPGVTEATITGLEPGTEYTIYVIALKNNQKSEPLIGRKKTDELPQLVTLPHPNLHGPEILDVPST

[5] = target: H-296, a polypeptide comprising a heparin binding domain and a CS-1 domain of fibronectin (Homo sapiens (Human)) (UniProt P02751); experiment: ELISA; H-296 coated at 25 ug/mL in 0.2 M phosphate buffer pH 6.8; HRP-labeled FNH3-8, ABTS
[6] = target: H296-H296-HT; experiment: ELISA; H296-H296-HT coated at 2 ug/mL; HRP-labeled FNH3-8, ABTS; blank subtracted
[7] = target: H296-H296-H296-HT; experiment: ELISA; H296-H296-H296-HT coated at 25 ug/mL; HRP-labeled FNH3-8, ABTS; blank subtracted
Sequence of H296-H296-H296-HT (chain, as listed by the source limits assumed): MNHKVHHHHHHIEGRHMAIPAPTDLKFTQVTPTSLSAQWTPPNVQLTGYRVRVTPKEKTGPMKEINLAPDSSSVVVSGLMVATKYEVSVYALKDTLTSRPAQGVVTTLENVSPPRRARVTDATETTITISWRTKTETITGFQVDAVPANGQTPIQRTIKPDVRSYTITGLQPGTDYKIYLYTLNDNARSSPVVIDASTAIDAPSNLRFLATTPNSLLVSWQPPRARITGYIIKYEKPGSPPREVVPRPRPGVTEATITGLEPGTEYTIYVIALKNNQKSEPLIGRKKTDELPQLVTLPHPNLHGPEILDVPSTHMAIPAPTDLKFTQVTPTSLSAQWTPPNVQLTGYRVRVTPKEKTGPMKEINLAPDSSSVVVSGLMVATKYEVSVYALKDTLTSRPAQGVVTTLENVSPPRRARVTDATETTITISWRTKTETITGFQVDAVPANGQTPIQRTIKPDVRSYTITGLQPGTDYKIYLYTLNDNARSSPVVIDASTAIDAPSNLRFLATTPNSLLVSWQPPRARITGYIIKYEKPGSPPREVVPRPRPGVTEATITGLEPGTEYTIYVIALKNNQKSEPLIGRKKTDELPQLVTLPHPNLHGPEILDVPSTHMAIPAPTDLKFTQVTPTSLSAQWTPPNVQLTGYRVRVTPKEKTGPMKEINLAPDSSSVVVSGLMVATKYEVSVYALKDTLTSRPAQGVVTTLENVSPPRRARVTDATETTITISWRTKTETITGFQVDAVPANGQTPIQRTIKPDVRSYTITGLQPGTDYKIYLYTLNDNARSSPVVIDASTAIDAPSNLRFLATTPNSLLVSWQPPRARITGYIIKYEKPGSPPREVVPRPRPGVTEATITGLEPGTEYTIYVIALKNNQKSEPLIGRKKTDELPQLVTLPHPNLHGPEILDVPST

[8] = target: H-296, a polypeptide comprising a heparin binding domain and a CS-1 domain of fibronectin (Homo sapiens (Human)) (UniProt P02751); experiment: ELISA; H-296 coated at 25 ug/mL in 0.2 M acetate buffer pH 3.8; HRP-labeled FNH3-8, ABTS
[9] = target: H-296, a polypeptide comprising a heparin binding domain and a CS-1 domain of fibronectin (Homo sapiens (Human)) (UniProt P02751); experiment: ELISA; H-296 coated at 25 ug/mL in 0.2 M phosphate buffer pH 6.2; HRP-labeled FNH3-8, ABTS
[10] = target: H-296, a polypeptide comprising a heparin binding domain and a CS-1 domain of fibronectin (Homo sapiens (Human)) (UniProt P02751); experiment: ELISA as in Example 34; H-296 coated at 25 ug/mL in pH 5.6 acetate buffer; HRP-labeled FNH3-8
[11] = target: H271-H296; experiment: ELISA; H271-H296 coated at 20 ug/mL; HRP-labeled FNH3-8, ABTS; blank subtracted
[12] = target: H296-H271; experiment: ELISA; H296-H271 coated at 11 ug/mL; HRP-labeled FNH3-8, ABTS; blank subtracted
Sequence of H296-H271 (chain, as listed by the source limits assumed): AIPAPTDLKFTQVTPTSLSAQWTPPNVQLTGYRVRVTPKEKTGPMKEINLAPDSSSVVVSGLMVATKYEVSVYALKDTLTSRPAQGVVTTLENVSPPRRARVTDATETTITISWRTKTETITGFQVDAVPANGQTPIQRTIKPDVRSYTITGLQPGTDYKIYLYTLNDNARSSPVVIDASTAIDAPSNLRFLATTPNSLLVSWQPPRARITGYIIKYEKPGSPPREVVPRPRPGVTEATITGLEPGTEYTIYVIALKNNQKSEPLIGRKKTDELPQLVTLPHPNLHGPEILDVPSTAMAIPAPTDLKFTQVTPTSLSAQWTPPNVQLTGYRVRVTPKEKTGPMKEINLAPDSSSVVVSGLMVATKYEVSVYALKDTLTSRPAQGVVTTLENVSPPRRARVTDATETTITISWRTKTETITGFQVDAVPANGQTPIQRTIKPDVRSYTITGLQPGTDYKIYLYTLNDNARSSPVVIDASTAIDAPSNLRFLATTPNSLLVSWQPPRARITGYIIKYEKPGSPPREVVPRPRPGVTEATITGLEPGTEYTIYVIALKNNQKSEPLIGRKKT

[13] = target: H-296, a polypeptide comprising a heparin binding domain and a CS-1 domain of fibronectin (Homo sapiens (Human)) (UniProt P02751); experiment: ELISA; H-296 coated at 25 ug/mL in 0.2 M phosphate buffer pH 8.0; HRP-labeled FNH3-8, ABTS
[14] = target: H296-H271; experiment: ELISA; H296-H271 coated at 7 ug/mL; HRP-labeled FNH3-8, ABTS; blank subtracted
[15] = target: H-296, a polypeptide comprising a heparin binding domain and a CS-1 domain of fibronectin (Homo sapiens (Human)) (UniProt P02751); experiment: ELISA; H-296 coated at 50 ug/mL in 0.2 M acetate buffer pH 5.6; HRP-labeled FNH3-8, ABTS
[16] = target: H-296, a polypeptide comprising a heparin binding domain and a CS-1 domain of fibronectin (Homo sapiens (Human)) (UniProt P02751); experiment: ELISA as in Example 34; H-296 coated at 50 ug/mL in pH 5.6 acetate buffer; HRP-labeled FNH3-8
[17] = target: H296-H296 (modified fibronectin fragment in which two H-296's are connected); experiment: ELISA as in Example 34; H296-H296 coated at 6.25 ug/mL in PBS; HRP-labeled FNH3-8
[18] = target: H296-H296-HT; experiment: ELISA; H296-H296-HT coated at 25 ug/mL; HRP-labeled FNH3-8, ABTS; blank subtracted
[19] = target: H296-H271; experiment: ELISA; H296-H271 coated at 15 ug/mL; HRP-labeled FNH3-8, ABTS; blank subtracted
[20] = target: H271-H296; experiment: ELISA; H271-H296 coated at 10 ug/mL; HRP-labeled FNH3-8, ABTS; blank subtracted
[21] = target: H296-H296-H296-HT; experiment: ELISA; H296-H296-H296-HT coated at 3 ug/mL; HRP-labeled FNH3-8, ABTS; blank subtracted
[22] = target: H296-H271; experiment: ELISA; H296-H271 coated at 5 ug/mL; HRP-labeled FNH3-8, ABTS; blank subtracted
[23] = target: H-296, a polypeptide comprising a heparin binding domain and a CS-1 domain of fibronectin (Homo sapiens (Human)) (UniProt P02751); experiment: ELISA; H-296 coated at 50 ug/mL in 0.2 M phosphate buffer pH 6.8; HRP-labeled FNH3-8, ABTS
[24] = target: H-296, a polypeptide comprising a heparin binding domain and a CS-1 domain of fibronectin (Homo sapiens (Human)) (UniProt P02751); experiment: ELISA; H-296 coated at 25 ug/mL in 0.2 M acetate buffer pH 4.4; HRP-labeled FNH3-8, ABTS
[25] = target: H296-H296-HT; experiment: ELISA; H296-H296-HT coated at 10 ug/mL; HRP-labeled FNH3-8, ABTS; blank subtracted
[26] = target: H296-H296 (modified fibronectin fragment in which two H-296's are connected); experiment: ELISA as in Example 34; H296-H296 coated at 12.5 ug/mL in PBS; HRP-labeled FNH3-8
[27] = target: H296-H296-HT; experiment: ELISA; H296-H296-HT coated at 0.5 ug/mL; HRP-labeled FNH3-8, ABTS; blank subtracted
[28] = target: H-296, a polypeptide comprising a heparin binding domain and a CS-1 domain of fibronectin (Homo sapiens (Human)) (UniProt P02751); experiment: ELISA as in Example 34; H-296 coated at 200 ug/mL in pH 5.6 acetate buffer; HRP-labeled FNH3-8

Sequence of H296-H296-HT (chain, as listed by the source limits assumed): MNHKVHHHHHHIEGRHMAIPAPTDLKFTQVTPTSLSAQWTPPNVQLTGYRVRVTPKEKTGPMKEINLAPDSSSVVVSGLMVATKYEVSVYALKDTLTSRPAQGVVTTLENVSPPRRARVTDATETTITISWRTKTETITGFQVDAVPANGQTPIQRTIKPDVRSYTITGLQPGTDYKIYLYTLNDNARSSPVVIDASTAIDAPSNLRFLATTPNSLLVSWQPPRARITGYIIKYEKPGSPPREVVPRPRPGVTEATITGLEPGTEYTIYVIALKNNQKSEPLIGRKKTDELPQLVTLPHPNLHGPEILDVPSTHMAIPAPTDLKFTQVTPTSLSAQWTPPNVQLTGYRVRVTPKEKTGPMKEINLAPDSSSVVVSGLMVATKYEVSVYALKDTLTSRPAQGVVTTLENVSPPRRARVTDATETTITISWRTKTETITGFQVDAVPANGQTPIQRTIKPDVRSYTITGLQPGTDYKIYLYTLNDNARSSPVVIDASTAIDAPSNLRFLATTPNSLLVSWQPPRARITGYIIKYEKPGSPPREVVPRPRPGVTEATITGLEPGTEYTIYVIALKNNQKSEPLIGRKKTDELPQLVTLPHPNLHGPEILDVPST

With “FNH3-8 antibody (manufactured by TAKARA BIO INC.) labeled with HRP” the absorbance at 405 nm [1] was 2.02, the 405 nm (Found Value - Blank) [2] was 0.878 and the absorbance at 405 nm [3] was 0.244. The 405 nm (Found Value - Blank) [4] was 0.594, the absorbance at 405 nm [5] was 0.075 and the 405 nm (Found Value - Blank) [6] was 0.54. The 405 nm (Found Value - Blank) [7] was 0.991, the absorbance at 405 nm [8] was 0.243 and the absorbance at 405 nm [9] was 0.131. It also gave an absorbance at 405 nm [10] of 0.224, a 405 nm (Found Value - Blank) [11] of 0.603 and a 405 nm (Found Value - Blank) [12] of 0.561. For the same substance, the absorbance at 405 nm [13] was 0.104, the 405 nm (Found Value - Blank) [14] was 0.518 and the absorbance at 405 nm [15] was 0.567. It also gave an absorbance at 405 nm [16] of 0.304, an absorbance at 405 nm [17] of 1.29 and a 405 nm (Found Value - Blank) [18] of 0.965. It also gave a 405 nm (Found Value - Blank) [19] of 0.635, a 405 nm (Found Value - Blank) [20] of 0.6 and a 405 nm (Found Value - Blank) [21] of 0.743. The 405 nm (Found Value - Blank) [22] was 0.448, the absorbance at 405 nm [23] was 0.167 and the absorbance at 405 nm [24] was 0.428. For the same substance, the 405 nm (Found Value - Blank) [25] was 0.976, the absorbance at 405 nm [26] was 1.73 and the 405 nm (Found Value - Blank) [27] was 0.033. For the same substance, the absorbance at 405 nm [28] was 0.964.
